# Reference: publication PMC9342900, “Cryo-EM structures of the Synechocystis sp. PCC 6803 cytochrome b6f complex with and without the regulatory PetP subunit” (Biochemical Journal, 2022)
# T1: Synechocystis cytb6f-PetP complex (Rieske ISP subunit) (Synechocystis sp. PCC 6803, UniProt P26290)
# T1 construct: gene petC1; same complex as P1; with Cytochrome b6; Cytochrome b6-f complex subunit 4; Cytochrome f; Cytochrome b6-f complex subunit 5; Cytochrome b6-f complex subunit 6; Cytochrome b6-f complex subunit 7; Cytochrome b6-f complex subunit 8; Cytochrome b6f regulatory subunit PetP
# T1 sequence (P26290 2-180): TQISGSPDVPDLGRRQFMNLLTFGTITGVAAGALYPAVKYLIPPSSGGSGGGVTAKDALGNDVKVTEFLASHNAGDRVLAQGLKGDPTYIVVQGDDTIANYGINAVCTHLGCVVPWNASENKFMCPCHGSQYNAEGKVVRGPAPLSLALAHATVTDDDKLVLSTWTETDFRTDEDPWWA
# T2: subunit IV of the Synechocystis cytb6f complex (Synechocystis sp. PCC 6803, UniProt P27589 1-160)
# T2 construct: subunit IV, Synechocystis sp; PCC 6803, endogenous subunit of cytb6f; Stood in the structure as a subunit of m2; also called subIV; source: Synechocystis PetA-StrepII strain, purified as part of cytb6f (StrepTrap HP, SEC)
# T2 sequence: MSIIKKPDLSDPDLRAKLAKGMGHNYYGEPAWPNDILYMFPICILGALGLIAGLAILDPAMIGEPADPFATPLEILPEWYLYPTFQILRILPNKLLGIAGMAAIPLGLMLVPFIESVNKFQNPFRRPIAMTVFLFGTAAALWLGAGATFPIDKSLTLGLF
# T3: cytochrome b6 subunit of the Synechocystis cytb6f complex (Synechocystis sp. PCC 6803, UniProt Q57038 1-222)
# T3 construct: cytochrome b6, Synechocystis sp; PCC 6803, endogenous subunit of cytb6f; Stood in the structure as a subunit of m2; source: Synechocystis PetA-StrepII strain, purified as part of cytb6f (StrepTrap HP, SEC)
# T3 sequence: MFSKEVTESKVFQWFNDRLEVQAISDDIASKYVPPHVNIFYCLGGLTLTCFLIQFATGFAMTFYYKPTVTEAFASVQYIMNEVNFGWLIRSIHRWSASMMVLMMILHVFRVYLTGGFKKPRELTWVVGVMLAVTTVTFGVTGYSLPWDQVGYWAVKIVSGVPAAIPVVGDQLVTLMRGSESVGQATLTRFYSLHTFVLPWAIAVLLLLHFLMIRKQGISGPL
# B1: N-terminally hexa-Histidine (His)-tagged PetP (natural protein, Synechocystis sp. PCC 6803)
# chain: MTIEIGQKVKVYRLRDRVSPDVVGKLGKVGVVKDFKMTDGSGIGAVVSFDDRTATWFFEDELKAI
# notes: PetP, Synechocystis sp; PCC 6803, gene petP (ssr2998), codon optimized for E. coli, cloned into the NdeI and XhoI sites of pET28a(+); About 10 kDa protein; The vector pET28a(+) adds further residues between the His tag and the NdeI site; also called His-PetP; His6-tagged PetP; source: E. coli BL21(DE3), purified (HisTrap IMAC, PD-10 desalting); not shown: His6, N-terminal, kept
# Experiments:
# [1] = biological target: T1, Synechocystis cytb6f-PetP complex (Rieske ISP subunit); assay: cryo-EM structure, […] Å; assay type: binding; conditions: native co-purified
# [2] = biological target: T4, Synechocystis cytb6f-PetP complex (cytochrome b6 / subunit IV core) (Synechocystis sp. PCC 6803, UniProt P27589+Q57038); assay: cryo-EM structure, […] Å; assay type: binding; conditions: Qn site, one PQ per monomer near heme cn; native co-purified; with PetP
# T4 construct: gene petB; native dimeric complex from Synechocystis thylakoids in GDN, cytochrome f with C-terminal Ser-Ala-Strep-tag II; reconstituted with His6-PetP from E. coli; with Cytochrome f; Cytochrome b6-f complex iron-sulfur subunit; Cytochrome b6-f complex subunit 5; Cytochrome b6-f complex subunit 6; Cytochrome b6-f complex subunit 7; Cytochrome b6-f complex subunit 8; Cytochrome b6f regulatory subunit PetP
# [3] = biological target: T5, Synechocystis cytb6f complex (carotenoid site) (Synechocystis sp. PCC 6803, UniProt P0DXY4+P74149+P74810+Q57038); assay: cryo-EM structure; HPLC of extracted pigments; assay type: binding; conditions: native co-purified; 9-cis configuration suggested
# T5 construct: gene petB; same complex as P1; with Cytochrome b6-f complex subunit 4; Cytochrome f; Cytochrome b6-f complex iron-sulfur subunit; Cytochrome b6-f complex subunit 8; Cytochrome b6f regulatory subunit PetP
# [4] = biological target: Synechocystis sp. PCC 6803 cytochrome b6f complex with C-terminally StrepII-tagged PetA, purified dimer (Synechocystis sp. PCC 6803) (UniProt P26287); assay: cryo-EM structure; cytb6f without PetP, 17 uM, in GDN; 3.15 A
# [5] = biological target: Synechocystis sp. PCC 6803 cytochrome b6f complex with C-terminally StrepII-tagged PetA, purified dimer (Synechocystis sp. PCC 6803) (UniProt P26287); assay: cryo-EM structure; reconstituted cytb6f-PetP complex, 20 uM, in buffer D with GDN; 2.80 A
# [6] = biological target: Synechocystis sp. PCC 6803 cytochrome b6f complex with C-terminally StrepII-tagged PetA, purified dimer (Synechocystis sp. PCC 6803) (UniProt P26287); assay: native gel or EMSA; BN-PAGE on NativePAGE 3-12% Bis-Tris gels, Coomassie stain; purified cytb6f and cytb6f-PetP; dimer against monomer of the complex
# [7] = biological target: T2, subunit IV of the Synechocystis cytb6f …; assay: cryo-EM structure; reconstituted cytb6f-PetP complex, 20 uM, in buffer D with GDN; 2.80 A; conditions: both partners purified
# [8] = biological target: T3, cytochrome b6 subunit of the …; assay: as above; conditions: both partners purified
# [9] = biological target: B1; assay: as above; conditions: both partners purified
molecule,measurement,setting,value
[S]1[Fe][S][Fe]1 [2Fe-2S cluster],"cryo-EM structure, 2.80 Å",[1],the 2Fe-2S cluster (orange Fe and yellow S)
"CC(C)=CCC/C(C)=C/CC/C(C)=C/CC/C(C)=C/CC/C(C)=C/CC/C(C)=C/CC/C(C)=C/CC/C(C)=C/CC/C(C)=C/CC1=CC(=O)C(C)=C(C)C1=O [PQ, plastoquinone]","cryo-EM structure, 2.80 Å",[2],"resolves two native PQ molecules, one bound at each Qn site within the dimer"
CC1=C(/C=C/C(C)=C/C=C/C(C)=C/C=C/C=C(C)/C=C/C=C(C)/C=C/C2=C(C)C(=O)CCC2(C)C)C(C)(C)CCC1 [echinenone],cryo-EM structure; HPLC of extracted pigments,[3],clear density for the ketone group on the end ring of echinenone
"Synechocystis sp. PCC 6803 cytochrome b6f complex with C-terminally StrepII-tagged PetA, purified dimer (from UniProt P26287 45-328; Q57038 1-222; P27589 1-160; P74149 1-38; P74810 1-36; P72717 1-29)",stoichiometry N,[4],2
same,stoichiometry N,[5],2
same,stoichiometry N,[6],2
B1,binding result,[7],binds
same,binding result,[8],binds
"MIEPLLLGIVLGLIPVTLAGLFVAAYLQYKRGNQFNLD (natural protein, Synechocystis sp. PCC 6803, PetG, Synechocystis sp; PCC 6803, endogenous subunit of cytb6f; Stood in the structure as a subunit of m2; source: Synechocystis PetA-StrepII strain, purified as part of cytb6f (StrepTrap HP, SEC)) [PetG subunit of the Synechocystis cytb6f complex]",binding result,[9],binds
